The text below walks through data of article PMC4607269 (Cell, 2015).

The chains are these.
B1: GFP-xBuGZ-C (domain or fragment, Xenopus, UniProt Q7ZXV8 376-452, looked up)
chain: GAMMAPRPGLPPQQHGMRHPLPPHGQYGAPLQGMAGYHPGTMPPFGQGPPMVPPFQGGPPRPLMGIRPPVMSQGGRY
B2: GFP-xBuGZ-B (domain or fragment, Xenopus, UniProt Q7ZXV8 258-334, looked up)
chain: SAGQAQAHISGPVGTDFKPLNNIPATTAEHPKPTFPAYTQSTMSTTSTTNSTASKPSTSITSKPATLTTTSATSKLV
B3: YFP-tagged xBuGZ (Xenopus BuGZ) (natural protein)
chain: not shown
B4: GFP-xBuGZ-A (domain or fragment, Xenopus, UniProt Q7ZXV8 111-187, looked up)
chain: NQDDSDYDDDDDTAPSTSFQQMQTQQAFMPTMGQPGIPGLPGAPGMPPGITSLMPAVPPLISGIPHVMAGMHPHGMM

This assay concerns the target His-xBuGZ (Xenopus, UniProt Q7ZXV8 1-452). Description: incorporation into His-xBuGZ droplets.
On to B1, for which the binding result is listed as “binds”. The entry for B2 is “binds”; for B3 it is “binds”; for B4 it is “binds”.
